B1: SMOC2 (parent)
chain: DCAGSPQKPLCASDGRTFLSRCEF
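Note: lentivirally expressed fusions sorted by FACS into six bins by GFP to DsRed ratio, PSI derived from sequencing read proportions per bin multiplied by bin number.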

Variants of: B1
Experiment: protein stability index of a GFP-peptide fusion (GPS, HEK-293T) (PSI 1-6); higher = more stable
Conditions: c terminus: a fixed tail appended
In the case of DCANSPQKPLCASDGRTFLSRCEF [G4N], the protein stability index is reported as 2.62. With DCAPSPQKPLCASDGRTFLSRCEF [G4P] the protein stability index was 2.56. Variant DCAQSPQKPLCASDGRTFLSRCEF [G4Q] has a protein stability index of 2.88. In the case of DCARSPQKPLCASDGRTFLSRCEF [G4R], the protein stability index is reported as 2.08. In the case of DCASSPQKPLCASDGRTFLSRCEF [G4S], the protein stability index is reported as 2.24. DCATSPQKPLCASDGRTFLSRCEF [G4T] gave a protein stability index of 3.2. With DCAVSPQKPLCASDGRTFLSRCEF [G4V] the protein stability index was 2.47. In the case of DCAWSPQKPLCASDGRTFLSRCEF [G4W], the protein stability index is reported as 2.32. DCAYSPQKPLCASDGRTFLSRCEF [G4Y] gave a protein stability index of 2.22. For DCAGAPQKPLCASDGRTFLSRCEF [S5A], the protein stability index was 2.94. With DCAGCPQKPLCASDGRTFLSRCEF [S5C] the protein stability index was 2.24. For DCAGDPQKPLCASDGRTFLSRCEF [S5D], the protein stability index was 2.96. For DCAGEPQKPLCASDGRTFLSRCEF [S5E], the protein stability index was 2.56. Variant DCAGFPQKPLCASDGRTFLSRCEF [S5F] has a protein stability index of 1.72. For DCAGGPQKPLCASDGRTFLSRCEF [S5G], the protein stability index was 3.07. DCAGIPQKPLCASDGRTFLSRCEF [S5I] gave a protein stability index of 2.14. DCAGKPQKPLCASDGRTFLSRCEF [S5K] gave a protein stability index of 2.72. DCAGLPQKPLCASDGRTFLSRCEF [S5L] showed a protein stability index of 2.46. Variant DCAGMPQKPLCASDGRTFLSRCEF [S5M] has a protein stability index of 2.52. With DCAGNPQKPLCASDGRTFLSRCEF [S5N] the protein stability index was 2.78. Variant DCAGPPQKPLCASDGRTFLSRCEF [S5P] has a protein stability index of 2.72. In the case of DCAGQPQKPLCASDGRTFLSRCEF [S5Q], the protein stability index is reported as 2.09. In the case of DCAGRPQKPLCASDGRTFLSRCEF [S5R], the protein stability index is reported as 2.66. DCAGTPQKPLCASDGRTFLSRCEF [S5T] showed a protein stability index of 2.24. DCAGVPQKPLCASDGRTFLSRCEF [S5V] gave a protein stability index of 2.76. Variant DCAGWPQKPLCASDGRTFLSRCEF [S5W] has a protein stability index of 2.46. With DCAGYPQKPLCASDGRTFLSRCEF [S5Y] the protein stability index was 2.68. DCAGSAQKPLCASDGRTFLSRCEF [P6A] gave a protein stability index of 1.73. For DCAGSCQKPLCASDGRTFLSRCEF [P6C], the protein stability index was 2.14. For DCAGSDQKPLCASDGRTFLSRCEF [P6D], the protein stability index was 2.46. DCAGSEQKPLCASDGRTFLSRCEF [P6E] gave a protein stability index of 3.15. DCAGSFQKPLCASDGRTFLSRCEF [P6F] showed a protein stability index of 1.76. With DCAGSGQKPLCASDGRTFLSRCEF [P6G] the protein stability index was 2.62. For DCAGSHQKPLCASDGRTFLSRCEF [P6H], the protein stability index was 2.21. Work on DCAGSIQKPLCASDGRTFLSRCEF [P6I] yielded a protein stability index of 2.34. Variant DCAGSKQKPLCASDGRTFLSRCEF [P6K] has a protein stability index of 1.69. For DCAGSLQKPLCASDGRTFLSRCEF [P6L], the protein stability index was 2.18. Work on DCAGSNQKPLCASDGRTFLSRCEF [P6N] yielded a protein stability index of 2.66. DCAGSQQKPLCASDGRTFLSRCEF [P6Q] showed a protein stability index of 2.75. For DCAGSRQKPLCASDGRTFLSRCEF [P6R], the protein stability index was 2.19. For DCAGSSQKPLCASDGRTFLSRCEF [P6S], the protein stability index was 3.39. Variant DCAGSTQKPLCASDGRTFLSRCEF [P6T] has a protein stability index of 2.53. Work on DCAGSVQKPLCASDGRTFLSRCEF [P6V] yielded a protein stability index of 1.8. DCAGSWQKPLCASDGRTFLSRCEF [P6W] gave a protein stability index of 2.08. Work on DCAGSYQKPLCASDGRTFLSRCEF [P6Y] yielded a protein stability index of 2.62. Variant DCAGSPAKPLCASDGRTFLSRCEF [Q7A] has a protein stability index of 2.51. In the case of DCAGSPCKPLCASDGRTFLSRCEF [Q7C], the protein stability index is reported as 2.26. For DCAGSPDKPLCASDGRTFLSRCEF [Q7D], the protein stability index was 2.94. In the case of DCAGSPEKPLCASDGRTFLSRCEF [Q7E], the protein stability index is reported as 1.81. DCAGSPFKPLCASDGRTFLSRCEF [Q7F] gave a protein stability index of 1.75. Work on DCAGSPGKPLCASDGRTFLSRCEF [Q7G] yielded a protein stability index of 2.88. DCAGSPHKPLCASDGRTFLSRCEF [Q7H] gave a protein stability index of 2.1. For DCAGSPIKPLCASDGRTFLSRCEF [Q7I], the protein stability index was 1.83. For DCAGSPKKPLCASDGRTFLSRCEF [Q7K], the protein stability index was 3.04. For DCAGSPLKPLCASDGRTFLSRCEF [Q7L], the protein stability index was 2.11. Work on DCAGSPMKPLCASDGRTFLSRCEF [Q7M] yielded a protein stability index of 2.73. In the case of DCAGSPNKPLCASDGRTFLSRCEF [Q7N], the protein stability index is reported as 1.96. Variant DCAGSPRKPLCASDGRTFLSRCEF [Q7R] has a protein stability index of 3.06. DCAGSPTKPLCASDGRTFLSRCEF [Q7T] gave a protein stability index of 2.46. Variant DCAGSPVKPLCASDGRTFLSRCEF [Q7V] has a protein stability index of 2.39. DCAGSPWKPLCASDGRTFLSRCEF [Q7W] gave a protein stability index of 2.55. Work on DCAGSPYKPLCASDGRTFLSRCEF [Q7Y] yielded a protein stability index of 2.36. DCAGSPQCPLCASDGRTFLSRCEF [K8C] gave a protein stability index of 2.18. Variant DCAGSPQDPLCASDGRTFLSRCEF [K8D] has a protein stability index of 3.33. Variant DCAGSPQEPLCASDGRTFLSRCEF [K8E] has a protein stability index of 2.17. With DCAGSPQFPLCASDGRTFLSRCEF [K8F] the protein stability index was 3.62. Variant DCAGSPQGPLCASDGRTFLSRCEF [K8G] has a protein stability index of 2.94. Variant DCAGSPQHPLCASDGRTFLSRCEF [K8H] has a protein stability index of 2.48. DCAGSPQIPLCASDGRTFLSRCEF [K8I] gave a protein stability index of 2.68. In the case of DCAGSPQLPLCASDGRTFLSRCEF [K8L], the protein stability index is reported as 2.41. In the case of DCAGSPQMPLCASDGRTFLSRCEF [K8M], the protein stability index is reported as 2.23. DCAGSPQNPLCASDGRTFLSRCEF [K8N] showed a protein stability index of 2.3. Variant DCAGSPQQPLCASDGRTFLSRCEF [K8Q] has a protein stability index of 2.77. With DCAGSPQRPLCASDGRTFLSRCEF [K8R] the protein stability index was 2.83. DCAGSPQSPLCASDGRTFLSRCEF [K8S] gave a protein stability index of 2.34. Work on DCAGSPQTPLCASDGRTFLSRCEF [K8T] yielded a protein stability index of 2.69. DCAGSPQVPLCASDGRTFLSRCEF [K8V] showed a protein stability index of 2.13. In the case of DCAGSPQWPLCASDGRTFLSRCEF [K8W], the protein stability index is reported as 2.46. Variant DCAGSPQYPLCASDGRTFLSRCEF [K8Y] has a protein stability index of 1.9. Variant DCAGSPQKALCASDGRTFLSRCEF [P9A] has a protein stability index of 3.42. DCAGSPQKCLCASDGRTFLSRCEF [P9C] showed a protein stability index of 2.65. Work on DCAGSPQKDLCASDGRTFLSRCEF [P9D] yielded a protein stability index of 2.97. For DCAGSPQKELCASDGRTFLSRCEF [P9E], the protein stability index was 2.72. For DCAGSPQKFLCASDGRTFLSRCEF [P9F], the protein stability index was 1.99. Work on DCAGSPQKGLCASDGRTFLSRCEF [P9G] yielded a protein stability index of 2.73. DCAGSPQKHLCASDGRTFLSRCEF [P9H] showed a protein stability index of 2.36. DCAGSPQKILCASDGRTFLSRCEF [P9I] gave a protein stability index of 2.04. DCAGSPQKKLCASDGRTFLSRCEF [P9K] gave a protein stability index of 1.85. In the case of DCAGSPQKMLCASDGRTFLSRCEF [P9M], the protein stability index is reported as 2.63. DCAGSPQKQLCASDGRTFLSRCEF [P9Q] gave a protein stability index of 3.13. With DCAGSPQKRLCASDGRTFLSRCEF [P9R] the protein stability index was 2.77. In the case of DCAGSPQKSLCASDGRTFLSRCEF [P9S], the protein stability index is reported as 3.08. Work on DCAGSPQKTLCASDGRTFLSRCEF [P9T] yielded a protein stability index of 2.69. For DCAGSPQKVLCASDGRTFLSRCEF [P9V], the protein stability index was 2.4.

Source: the supplement of paper PMC10567573
